According to paper PMC3989342:

Molecular target: F-actin (endogenous, detected with anti-beta-actin antibodies) (rat (endogenous in hippocampal neurons)) (UniProt P60711)
Assay: FRET or BRET; antibody-based acceptor-photobleaching FRET in fixed rat hippocampal neurons, single dendritic spine heads; anti-cofilin AE774 with Alexa 488 secondary (donor), anti-beta-actin AC15 with Alexa 555 secondary (acceptor); F-actin fixed, G-actin mostly extracted; control neurons, 2 min NMDA (nLTD), chronophin (CIN) overexpression

- ratio of FRET in the presence versus the absence of nLTD, CIN-expressing neurons: 51%
Substance: cofilin (endogenous cofilin/ADF of rat hippocampal neurons) (from UniProt P45592 1-166) (natural protein)
